This is an account of results in publication PMC12218379 (Scientific Reports, 2025).

The data set deals with the molecule itself. Kind of data set: SEC-MALS. Background: Size exclusion chromatography separates by hydrodynamic size, large species first.

B1: SsRidA (SSA_0809), reactive intermediate deaminase A homolog from Streptococcus sanguinis (enzyme, UniProt A3CM35 1-126, looked up)
chain: MAKTIHTDKAPAAIGPYVQGKIVGNLLFASGQIPLSPETGEIIGTTIEEQTQQVLKNVSAILEAAGTDFDHVVKATCFLSDINDFVAFNEVYKTAFTEAFPARSAVEVARLPKDVKIEIEVIAEIL
Broadly, the stoichiometry N is the number of molecules, sites or subunits per partner or assembly. In the case of B1, the “stoichiometry N” value worked out at 3.
